Test results taken from a protein production outcome set (Wang et al. 2014).

assay: label from the status in PepcDB records
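Further: failed if final PepcDB status was selected cloned or expressed and not failed if soluble or beyond.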

| Sequence | protein production |
| --- | --- |
| MSDVISESALKSAKTEKNQKIYWDELKEGEQFSYGHYQVSEHENIDFAKRYDPMEFHVDPEKAKLSPIGALCASGIHTLGIMQRLTFDNIYTNWHIVAGRELRKCQFRLPVFVDDCLTVNMTIAKLSVDTRSDRGNAELTFDVKNAKGKTVLEVEGEIVLQRFPSI | failed |
| MSDVTQQKKRKRSKGEVNPSKPTVDEEITDPSSNEDEQLEVSDEEDALESEEEFEGENPADKRRRLAKQYLENLKSEANDILTDNRNAEEKDLNNLKERTIDEYNNFDAGDLDKDIIASRLKEDVAEQQGRVFRYFGDKLLISEAKQSFTRVGENNLTCISCFQPVLNKYTFEESSNGDKNKGRLFAYTVSKDLQLTKYDITDFSKRPKKLKYAKGGAKYIPTSKHEYENTTEGHYDEILTVAASPDGKYVVTGGRDRKLIVWSTESLSPVKVIPTKDRRGEVLSLAFRKNSDQLYASCADFKIRTYSINQFSQLEILYGHHDIVEDISALAMERCVTVGARDRTAMLWKIPDETRLTFRGGDEPQKLLRRWMKENAKEGEDGEVKYPDESEAPLFFCEGSIDVVSMVDDFHFITGSDNGNICLWSLAKKKPIFTERIAHGILPEPSFNDISGETDEELRKRQLQGKKLLQPFWITSLYAIPYSNVFISGSWSGSLKVWKISDNLRSFELLGELSGAKGVVTKIQVVESGKHGKEKFRILASIAKEHRLGRWIANVSGARNGIYSAVIDQTGF | failed |
| MSDWADLMNDLNKLQHSDAVTTAWQFTEQVPHGRDLGMQVVSVDQGQVCMRLTPQSWMFAHKDTKEICTSVLYSLADSAGGLAVFAGALELMPIATLDLRMDYLRPAIGDRALSAVATCRHLSDDVAFIHCDILSEGNRELLATANATFMRNTQGQQLHAGGPGKESA | failed |
| MSDYYLFAGRLFIAVMYVLSGANKLLFFSHGLDEVKSRNLPFPQLALSATIAVQLICGLAIMAGFQTTTASLLLALFTLATAVLFYDFWNQEGAQRTLMFTGFLEHISIIGGFALLMGAGPGKFVLLP | failed |
| MSEADGLRQRRPLRPQVVTDDGQVPEVKEGSSFSGRVFRMTFLMLAVSLAIPLLGAMMLLESPIDPQSFSFKEPPFMFGVLHPNTKLRQAERLFENQLSGPESIVNIGDVLFTGTADGRVVKLENGEIETIARFGSGPCKTRDDEPTCGRPLGIRAGPNGTLFVVDAYKGLFEVNPQKRSVKLLLSSETPIEGKKMSFVNDLTVTRDGRKIYFTDSSSKWQRRDYLLLVMEATDDGRLLEYDTVTKEVKVLLDQLQFPNGVQLSPEEDFVLVAETTMARIRRVYVSGLMKGGADMFVENMPGFPDNIRPSSSGGYWVAAATIRANPGFSMLDFLSDKPFIKRMIFKMFSQETVMKFVPRYSLVLEVSDSGAFRRSLHDPDGQVVTYVSEAHEHDGYLYLGSFRSPFICRLSLQSI | failed |
| MSEDLMDLSPEEGIERFLRHREPSVRESTMRNAKTRLRFFNEWCEERDIENLNNLTGRDLADFVAWRRGDIAALTLQKQLSTIREALRYWADIEGVDDGLAEKVHAPELEHHHHHH | failed |
| MSEEEQGSGTTTGCGLPSIEQMLAANPGKTPISLLQEYGTRIGKTPVYDLLKAEGQAHQPNFTFRVTVGDTSCTGQGPS | failed |
| MSEELMISPAAPAAPAAGSALTSAQFRKLAEVPPEIEWFANIDSLQTRRAYQNDLRGFMAFAGIVSPEDFRLITRSHVLAWRKRLEEEQLGGATIRRKLAALSSLFEYLCEANAVTHNPVKGVKRPPVESWQGKTPALGDVQARALLEAPNAKTLKGKRDRAILSALLYHGIRREELARLKVKDYNQSRRGVPHLRIKGKGGKMRFIPTHPGTLTLIEEYLEAAGHGHDPDAPLFRPVKNNVHGHTLTALTPDSIYFEVVLKYLRKLGIFGENMGPHVMRATAATNALDNGADIAKVQEWLGHANIATTRIYDHRKTRPEDSPTFKVSY | failed |
| MSEEQHILEVLQSDDAEQVREAAYSAGELRLEAAVPHLVRHLQSQNIGVQEAVDNALRKIGGAAAVAGVIPLLRSDDAPIRNISMDILRDIGRDEFDALKQLLHDEDPDIRIFASDILGTSGSILAVPALCEALLRDPEVNVRYQAAVSLGTLAFPEAADCLNKAMQDEEWVQFSVIEALIKIRAESSVNALVKALDTTSDLVASMIVDALGEMGNLKAVPLLLKRIEKSPTPLRNKIVRAIVSILGKKSLSLLGEREQQRLGAYLLAALDDEDEEVQDAAMVGLASLGQAEATVAVLRLAARLDPDRDHERLEAAIRCIGGIGFNEAVEEALSDENESTILMVVEAAADMNPAEIVPALKRIFWDKGRDAQRAIATQLARIASLEDVDFFLDLLERAEDAHVIKAALHFLGHRARPAGVGERMLALLDHPYDDVKEAALEACIALQDVSLCASFRERFHSGDPLQRMMATYAMGRLDVDGNLDVLREALVDDVPDVRKVALEALAGTCPITPEHLELVVPLMHDPVREVRLALVDLFGACPEESVIGHLLEALDDEDDWVRVRAIEALGRLGRKECVTPLIERVDGAGNLVLLKIIEALGSIGGNMAFRALLALMEHEDPEIQQAAEDAVARLGEQDSEGE | failed |
| MSEFHSEISTLSPAPLWQFFDKICSIPHPSKHEEALAQYIINWATEQGFDVRRDPTGNVFIKKPATPGMENKKGVVLQAHIDMVPQKNEDTDHDFTKDPIQPYIDGEWVTAKGTTLGADNGIGMASCLAVLASKDIKHGPIEVLLTIDEEAGMTGAFGLEAGWLEGDILLNTDSEQEGEVYMGCAGGIDGAMTFDIKRDAIPTGFVTRQLTLKGLKGGHSGCDIHTGRGNANKLLGRFLAGHAQELDLRLVEFRGGSLRNAIPREAFVTVAVPAENQEKLAELFNYYTELLKAELGKVETGIVTFNEEIVTESQAFTAADQQRFIAALNACPNGVMRMSDEIEGVVETSLNVGVITTEENKVTVLCLIRSLIDSGRSQVESMLRSVAELAGAQVEFSGAYPGWKPDADSEIMAIFRDMYEGIYGHKPNIMVIHAGLECGLFKEPYPNMDMVSFGPTIKFPHSPDEKVKIDTVQLFWDQMVALLEAIPEKALEHHHHHH | not failed |
| MSEFRPVPTTDREACQRILQYAFAPETGPVPPDPDGDWPPSLFDQRGLYDGGTLRAVCKLYFFDTTVRGAATTVGGLGAVATPPEHRGQGLAADLCRHALSAYRKADVGFVTLWPFSTPFYHRLGWGTANTYRRFDLPPSALPDPSTAGQLVRLDADDWERLRRVETAAAAGTALSLRRSEAWWRERTLADWDDDGVPYCYGYERDGELQGYVVYTVADDANNTLSVSNFAAVDEEARRALFAFLGHHGAQIERVTLQLPPDTDLFHRVDDPGAVDCTVEAGPMVRLTDVDYLERLDWPGGDLDCTLSVNDPLLDHNDGLFRLSVNGGTATVDPLPASDSKADVAVDIATLSQLAVGTHGVDAAERLAGLEMFDDSVRGPLADVFQPESVYLGEFF | failed |
| MSEKELELLARIEELERHTWRNSAILRAVAMVAGTAMIGIIVASGVVGGGHGSHWTGPAWNTMWLYGLFAANAVSMFWTTHKD | failed |
| MSEKKAVIGVVTISDRASKGIYEDISGKAIIDYLKDVIITPFEVEYRVIPDERDLIEKTLIELADEKGCSLILTTGGTGPAPRDVTPEATEAVCEKMLPGFGELMRQVSLKQVPTAILSRQTAGIRGSCLIVNLPGKPQSIKVCLDAVMPAIPYCIDLIGGAYIDTDPNKVKAFRPKK | not failed |
| MSELFSNDNIFLNVNVNSQNEAIEKAGKALVDSGAVTDAYIQAMKDREQVVSTFMGNGLAIPHGTDEAKTNVIHSGLTLLQIPEGVDWDGEVVKVVVGIAGKDGEHLDLLSKIAITFSEEENVDRIVQAKSAEEIKQVFEEADA | failed |
| MSERAGEKKLDLLITGVGGQGAILASDIIGKAAVISGIPIRAAETHGMAQRGGSVVNHIRLGSDLGSMIPKKGADIMLALEPMEAVRYLDFLKDGGVIIVNTQSIIPVTVTSGLSKYPEVQEILDALSEKYVVKAFNADELAHEAGSRLAMNVAMVGAVSGYLPISKEVLLESVKVLVPKKTIEINIRAFEMGREEVEES | not failed |
| MSERIVPSGDVELWSDDFGDPADPALLLVMGGNLSALGWPDEFARRLADGGLHVIRYDHRDTGRSTTRDFAAHPYGFGELAADAVAVLDGWGVDRAHVVGLSMGATITQVIALDHHDRLSSLTMLLGGGLDIDFDANIERVMRGEPTLDGLPGPQQPFLDALALMNQPAEGRAAEVAKRVSKWRILSGTGVPFDDAEYARWEERAIDHAGGVLAEPYAHYSLTLPPPSRAAELREVTVPTLVIQAEHDPIAPAPHGKHLAGLIPTARLAEIPGMGHALPSSVHGPLAEVILAHTRSAA | not failed |
| MSERVKVAILGSGNIGTDLMYKLLKNPGHMELVAVVGIDPKSEGLARARALGLEASHEGIAYILERPEIKIVFDATSAKAHVRHAKLLREAGKIAIDLTPAARGPYVVPPVNLKEHLDKDNVNLITCGGQATIPLVYAVHRVAPVLYAEMVSTVASRSAGPGTRQNIDEFTFTTARGLEAIGGAKKGKAIIILNPAEPPILMTNTVRCIPEDEGFDREAVVASVRAMEREVQAYVPGYRLKADPVFERLPTPWGERTVVSMLLEVEGAGDYLPKYAGNLDIMTASARRVGEVFAQHLLGKPVEEVVA | not failed |
| MSETAIQTKTQARQRKVFAHHHVQHYRSQLERRISHSPQFREGKVINAMPHITATPSWWQTAWSYFGGRAQLKPNAQLPVAPLNLQALQTRSKALRVTWLGHSSLFIEVDGLRVLTDPVFDYASPWIAKAWFARNLPNSGVREQLPLPDVIVISHDHYDHLEQASVVYYAAHSVTFYVPLGVGQHLIRWGVSPERIIEFDWWEQIKREGVEFICTPANHNSGRYYLDHNATLWCSWVIKGHQETLYFSGDSAYDTHFAKIAERCGPIDLACLEVAADVKQHQGYPVENWGHMQAKHTVQAFRDLQAKKLLPIHWATYELFTHQWDEPIADLVKHCQEQSITLLTPMAGESLTMANHSASHAWWQGLETEPMSGARYWQMGLACSLLLLLMVV | failed |
| MSETDLLLKMVRQPVKLYSVATLFHEFSEVITKLEHSVQKEPTSLLSEENWHKQFLKFAQALPAHGSASWLNLDDALQAVVGNSRSAFLHQLIAKLKSRHLQVLELNKIGSEPLDLSNLPAPFYVLLPESFAARITLLVQDKALPYVRVSFEYWHA | not failed |
| MSEWMKKSPLEWEDYVYKEVRVIACEKEYKGWLLTTDPVSANIVLVNFLEDGRLSVTGIMGHSVQTVETISEGDHRVREKLMHVFASGDCKGYSPEDLEEKRTSLKKWLEKNHIPVTEQGDAQRTLCVAGVLTIDPPYAPENCSSSNEIILSRIQDLIQGHLSASQ | failed |
| MSEYLPGIIWLVVLLVVNAFFVGAEFAVISARRSQIEPKAEAGSKAAKTTLWAMEHATLMLATSQLGITVCSLVILNVSEPAIHHLLEIPLGLTSLSGEAIGIIAFVAALLLVTFLHVVLGEMVPKNISFSVPTRAALILAPPLVMVARILKPVIWTLNGIANSILRLFKVEPKDEATSAYTLDEVANIVEQSTRDGMLSDTSGTLTAAFEFTSKTVADVEVPIGEMVLLPATSTPADIQRAVAEHGYSRYILTDDDGTPTGYLHLKDVMDLTTREKFDQPVPAKRIRKLASAYSGSELEDALATMRRSGAHVARVFDAAGNTTGVLFLEDIIEELVGEVQDATST | not failed |
| MSFADLGLSDKVLQAVTTAGYTEPTPIQAQAIPHVLARRDVLGIAQTGTGKTAAFTLPMLTMLETGRARARMPRTLILEPTRELAAQVEENFERYGTNHKLNVALIIGGVSFADQDAKLTRGTDVLIATPGRLLDHFERGKLLLTGVELLVIDEADRMLDMGFIPDIERIVKMVPFTRQTLFFSATMPPEIERLADMFLHNPQRVEVARPASTATTIEQRLVATGAEGHEKRKVLRHLIRSASELQNGIIFCNRKRDVAQLQRSLTSHGFNAAALHGDMDQRARMAALDGFRSGEVPLLVASDVAARGLDIPAVSHVFNFDVPHHPEDYVHRIGRTGRAGRSGQAFTLASRSDERSLSAIESLIGQPIAWLDGDLASVSDEVEGDEPRRRRGSRRAKETKGGEETKSGGRSTERSAAPASESPRSENRSRGGRRPAAERSRADAPRRDPVREPEPVAVVPSAPPAPPRELAREPVRSAPERARGERRPPRRDEDGETPVGLGSHVPAFLLKPTGFGKSK | failed |
